Source: patent US20220017574A1 (Janssen / Centocor, published 2022)

Tests used:
Experiment in all cases: sandwich ELISA: antibody coated at 1 µg/ml, purified F protein titrated (after 4 weeks at 4 °C), detection with biotinylated CR9506
[1] = molecular target: T1, pre-fusion RSV F protein RSV180305 (respiratory syncytial virus subgroup A …, UniProt P12568 27-109; P03420 137-513)
T1 construct: Soluble F ectodomain; also called RSV pre-F (RSV180305)

[2] = molecular target: T2, pre-fusion RSV F protein RSV172527 (respiratory syncytial virus subgroup A …, UniProt P12568 27-109; P03420 137-513)
T2 construct: Soluble F ectodomain
T2 chain 1: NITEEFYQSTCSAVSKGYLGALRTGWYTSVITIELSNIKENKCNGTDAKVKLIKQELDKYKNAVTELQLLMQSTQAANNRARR
T2 chain 2: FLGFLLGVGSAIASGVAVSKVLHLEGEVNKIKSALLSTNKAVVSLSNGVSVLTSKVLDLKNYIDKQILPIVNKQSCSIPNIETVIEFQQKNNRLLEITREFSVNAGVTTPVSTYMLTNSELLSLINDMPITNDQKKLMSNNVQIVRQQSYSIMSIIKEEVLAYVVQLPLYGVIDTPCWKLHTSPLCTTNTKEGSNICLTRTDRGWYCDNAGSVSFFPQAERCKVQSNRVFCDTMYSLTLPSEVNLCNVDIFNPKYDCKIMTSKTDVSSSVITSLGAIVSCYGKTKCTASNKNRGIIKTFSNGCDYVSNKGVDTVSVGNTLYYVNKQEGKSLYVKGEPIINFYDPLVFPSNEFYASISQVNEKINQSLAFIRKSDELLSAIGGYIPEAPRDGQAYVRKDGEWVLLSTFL

[3] = molecular target: T3, control pre-fusion F protein RSV150042 (respiratory syncytial virus subgroup A, UniProt P03420 27-109; P03420 137-513)
T3 construct: Control protein described in WO2017/174568; also called PRPM

Measured: binding result

B1: monoclonal antibody CR9506 (antibody, human IgG1, kappa, V domains shown)
VH: EVQLVQSGAEVKKPGSSVKVSCKASGGTFSRSLITWVRQAPGQGLEWMGEISLVFGSAKNAQKFQGRVTITADESTSTAHMEMISLKHEDTAVYYCAAHQYGSGTHNNFWDESELRFDLWGQGTLVTVSS
VL: DIVMTQSPSSLSASVGDRVTIACRASQSIGTYLNWYQQKPGKAPKLLIYAASSLQSGVPSRFSGSGSGTHFTLAISSLQAEDFATYSCQQSYTIPYTFGQGTKLEIKR
notes: In the ELISA, CR9506 was coated as a capture antibody and also used biotinylated for detection; also called Mab CR9506
binds: all assays above
